Assay results: patent publication US20100021390A1, “Fluorescent Analogs Of The Islet Amyloid Polypeptide” (The Research Foundation of State University of New York, priority 2008, published 2010)

Key:
[1] = Control fluorescence of small p-cyanophenylalanine peptide in solvents and buffer; assay type: physicochemical
Text: In vitro assays of amyloid formation often involve solubilizing the peptide of interest in a fluorinated alcohol, typically hexafluoroisopropanol (HFIP). The fibrillization reaction is initiated by diluting the stock solution into aqueous buffer. […] A small, soluble p-cyanophenylalanine containing peptide (Gly-PheC≡N-Ala-Ala) was synthesized for the control studies. […] The fluorescence intensity was reduced by approximately 30%.

[2] = p-Cyanophenylalanine fluorescence kinetic assay of amyloid formation by the peptides; assay type: physicochemical; settings: 32 μM peptide, 20 mM Tris-HCl, 2% HFIP
Text: (§1) Wild-type IAPP, IAPP-Y37FC≡N and a G-FCN-A-A tetrapeptide were synthesized and the disulfide bond in IAPP was formed using dimethyl sulfoxide (DMSO) based oxidation as described in Abedini et al., Analytical Biochemistry 351, 181-186 (2006) incorporated herein by reference. The synthesis of peptides is well known in the art. Synthesizers such as the Applied Biosystems 433A are commercially available with ample instructions for use and are generally accessible to practitioners in the art. Fmoc-4-cyanoPhe was obtained from NovaBiochem. Peptides were purified via reverse phase HPLC and the identities confirmed by MALDI mass spectroscopy. Thioflavin-T fluorescence experiments were performed with a Jobin Yvon Horiba fluorescence spectrophotometer or with an Applied Phototechnology fluorescence spectrophotometer. P-cyanoPhe fluorescence was excited at 240 nm and detected at 296 nm with instrument slit widths of 10 nm on an Applied Photon Technologies fluorimeter. […]
(§2) Fibrillization reactions were initiated by diluting the stock 50-fold into buffered (20 mM Tris-HCl, pH 7.4) aqueous solution. […] The spectrum is the average of three repeats in a 0.1 cm quartz cuvette and recorded over a range of 190-250 nm, at 1 nm intervals, with an averaging time of three seconds per scan. […]

[3] = target: T1, hIAPP-Y37FC≡N (Homo sapiens, UniProt P10997); test: p-Cyanophenylalanine fluorescence-detected kinetics of hIAPP-Y37FC≡N amyloid formation in presence and absence of rifampicin; assay type: biochemical; settings: no rifampicin, 32 μM peptide
T1 construct: hIAPP is 37 residues in length, contains a disulfide bond linking residues 2 and 7 and has an amidated C-terminus; made in house; host or cells: chemical synthesis (Fmoc solid phase; Fmoc-4-cyanoPhe from NovaBiochem)
T1 sequence (P10997 with tags, fused parts or gaps): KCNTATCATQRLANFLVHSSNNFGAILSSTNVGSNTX
Method: Thioflavin-T Fluorescence. All fluorescence experiments were performed with a Jobin Yvon Horiba fluorescence spectrophotometer or with an Applied Phototechnology Fluorescence Spectrophotometer. An excitation wavelength of 450 nm and emission wavelength of 485 nm was used for the thioflavin-T studies. The excitation and emission slits were set at 5 nm. A 1.0 cm cuvette was used and each point was averaged for 1 minute. All solutions for these studies were prepared by diluting filtered stock solution (0.45 μm filter) into a Tris-HCl buffer (pH 7.4) and thioflavin-T solution immediately before the measurement. The final concentration was 32 μM peptide and 25 μM thioflavin-T with or without rifampicin in 2% HFIP for all experiments. The final concentration of ascorbic acid used in antioxidant experiments was 83 μM. All solutions were stirred during the fluorescence experiments. P-cyanophenylalanine fluorescence was excited at 240 nm and detected at 296 nm, with both excitation and emission slits of 10 nm.

[4] = Thioflavin-T fluorescence kinetic assay of amyloid (fibril) formation by the peptides; assay type: physicochemical; settings: 32 μM peptide, 20 mM Tris-HCl, 2% HFIP
Text: as §1, §2

[5] = target: the molecule itself; test: cell-based or functional assay

Molecule: Gly-PheC≡N-Ala-Ala
- reduction of fluorescence intensity ([1]; 20 mM Tris-HCl): approximately 30%
- fluorescence intensity in water vs 2% HFIP ([1]; water, 2% HFIP, very similar in 100% HFIP): the same

Molecule: KCNTATCATQRLANFLVHSSNNFGAILSSTNVGSNTFC≡N (HELM PEPTIDE1{K.C.N.T.A.T.C.A.T.Q.R.L.A.N.F.L.V.H.S.S.N.N.F.G.A.I.L.S.S.T.N.V.G.S.N.T.[N#Cc1ccc(C[C@H](N[*:1])C(=O)[*:2])cc1].[am]}$PEPTIDE1,PEPTIDE1,2:R3-7:R3$$$V2.0; N-terminus assumed; SMILES CC[C@H](C)[C@H](NC(=O)[C@H](C)NC(=O)CNC(=O)[C@H](Cc1ccccc1)NC(=O)[C@H](CC(N)=O)NC(=O)[C@H](CC(N)=O)NC(=O)[C@H](CO)NC(=O)[C@H](CO)NC(=O)[C@H](Cc1c[nH]cn1)NC(=O)[C@@H](NC(=O)[C@H](CC(C)C)NC(=O)[C@H](Cc1ccccc1)NC(=O)[C@H](CC(N)=O)NC(=O)[C@H](C)NC(=O)[C@H](CC(C)C)NC(=O)[C@H](CCCNC(=N)N)NC(=O)[C@H](CCC(N)=O)NC(=O)[C@@H](NC(=O)[C@H](C)NC(=O)[C@@H]1CSSC[C@H](NC(=O)[C@@H](N)CCCCN)C(=O)N[C@@H](CC(N)=O)C(=O)N[C@@H]([C@@H](C)O)C(=O)N[C@@H](C)C(=O)N[C@@H]([C@@H](C)O)C(=O)N1)[C@@H](C)O)C(C)C)C(=O)N[C@@H](CC(C)C)C(=O)N[C@@H](CO)C(=O)N[C@@H](CO)C(=O)N[C@H](C(=O)N[C@@H](CC(N)=O)C(=O)N[C@H](C(=O)NCC(=O)N[C@@H](CO)C(=O)N[C@@H](CC(N)=O)C(=O)N[C@H](C(=O)N[C@@H](Cc1ccc(C#N)cc1)C(N)=O)[C@@H](C)O)C(C)C)[C@@H](C)O) [hIAPP-Y37FC≡N, human IAPP with Tyr-37 replaced with p-cyanoPhe]
- time of the growth period (20 to 80% completion) by p-cyanophenylalanine fluorescence ([2]; pH 7.4): 248 ± 12 s
- midpoint (t50) of amyloid formation as determined by p-cyanophenylalanine fluorescence ([2]; pH 7.4, 25° C.): 1,100±100 s
- growth phase (10% to 80% completion) in absence of the drug [3]: 6 min
- t50 time when rifampicin is absent ([3]; 2% HFIP, 25° C., pH 7.4): 18 min
- time of the growth period (20 to 80% completion) by thioflavin-T fluorescence ([4]; pH 7.4): 247 ± 12 s
- midpoint (t50) of amyloid formation as determined by thioflavin-T fluorescence ([4]; pH 7.4, 25° C.): 1,130±100 s

B1: hIAPP-Y37FC≡N (peptide)
peptide: KCNTATCATQRLANFLVHSSNNFGAILSSTNVGSNTF
HELM: PEPTIDE1{K.C.N.T.A.T.C.A.T.Q.R.L.A.N.F.L.V.H.S.S.N.N.F.G.A.I.L.S.S.T.N.V.G.S.N.T.[N#Cc1ccc(C[C@H](N[*:1])C(=O)[*:2])cc1].[am]}$PEPTIDE1,PEPTIDE1,2:R3-7:R3$$$V2.0; N-terminus assumed
SMILES: CC[C@H](C)[C@H](NC(=O)[C@H](C)NC(=O)CNC(=O)[C@H](Cc1ccccc1)NC(=O)[C@H](CC(N)=O)NC(=O)[C@H](CC(N)=O)NC(=O)[C@H](CO)NC(=O)[C@H](CO)NC(=O)[C@H](Cc1c[nH]cn1)NC(=O)[C@@H](NC(=O)[C@H](CC(C)C)NC(=O)[C@H](Cc1ccccc1)NC(=O)[C@H](CC(N)=O)NC(=O)[C@H](C)NC(=O)[C@H](CC(C)C)NC(=O)[C@H](CCCNC(=N)N)NC(=O)[C@H](CCC(N)=O)NC(=O)[C@@H](NC(=O)[C@H](C)NC(=O)[C@@H]1CSSC[C@H](NC(=O)[C@@H](N)CCCCN)C(=O)N[C@@H](CC(N)=O)C(=O)N[C@@H]([C@@H](C)O)C(=O)N[C@@H](C)C(=O)N[C@@H]([C@@H](C)O)C(=O)N1)[C@@H](C)O)C(C)C)C(=O)N[C@@H](CC(C)C)C(=O)N[C@@H](CO)C(=O)N[C@@H](CO)C(=O)N[C@H](C(=O)N[C@@H](CC(N)=O)C(=O)N[C@H](C(=O)NCC(=O)N[C@@H](CO)C(=O)N[C@@H](CC(N)=O)C(=O)N[C@H](C(=O)N[C@@H](Cc1ccc(C#N)cc1)C(N)=O)[C@@H](C)O)C(C)C)[C@@H](C)O
- midpoint (t50) of amyloid formation, p-cyanophenylalanine fluorescence [5]: 1100 s
- midpoint (t50) of amyloid formation, thioflavin-T fluorescence [5]: 1130 s

B2: hIAPP-F15FC≡N (peptide)
peptide: KCNTATCATQRLANFLVHSSNNFGAILSSTNVGSNTY
HELM: PEPTIDE1{K.C.N.T.A.T.C.A.T.Q.R.L.A.N.[N#Cc1ccc(C[C@H](N[*:1])C(=O)[*:2])cc1].L.V.H.S.S.N.N.F.G.A.I.L.S.S.T.N.V.G.S.N.T.Y.[am]}$PEPTIDE1,PEPTIDE1,2:R3-7:R3$$$V2.0; N-terminus assumed
SMILES: CC[C@H](C)[C@H](NC(=O)[C@H](C)NC(=O)CNC(=O)[C@H](Cc1ccccc1)NC(=O)[C@H](CC(N)=O)NC(=O)[C@H](CC(N)=O)NC(=O)[C@H](CO)NC(=O)[C@H](CO)NC(=O)[C@H](Cc1c[nH]cn1)NC(=O)[C@@H](NC(=O)[C@H](CC(C)C)NC(=O)[C@H](Cc1ccc(C#N)cc1)NC(=O)[C@H](CC(N)=O)NC(=O)[C@H](C)NC(=O)[C@H](CC(C)C)NC(=O)[C@H](CCCNC(=N)N)NC(=O)[C@H](CCC(N)=O)NC(=O)[C@@H](NC(=O)[C@H](C)NC(=O)[C@@H]1CSSC[C@H](NC(=O)[C@@H](N)CCCCN)C(=O)N[C@@H](CC(N)=O)C(=O)N[C@@H]([C@@H](C)O)C(=O)N[C@@H](C)C(=O)N[C@@H]([C@@H](C)O)C(=O)N1)[C@@H](C)O)C(C)C)C(=O)N[C@@H](CC(C)C)C(=O)N[C@@H](CO)C(=O)N[C@@H](CO)C(=O)N[C@H](C(=O)N[C@@H](CC(N)=O)C(=O)N[C@H](C(=O)NCC(=O)N[C@@H](CO)C(=O)N[C@@H](CC(N)=O)C(=O)N[C@H](C(=O)N[C@@H](Cc1ccc(O)cc1)C(N)=O)[C@@H](C)O)C(C)C)[C@@H](C)O
- midpoint (t50) of amyloid formation, p-cyanophenylalanine fluorescence [5]: 936 s
- midpoint (t50) of amyloid formation, thioflavin-T fluorescence [5]: 913 s

B3: hIAPP-F23FC≡N (peptide)
peptide: KCNTATCATQRLANFLVHSSNNFGAILSSTNVGSNTY
HELM: PEPTIDE1{K.C.N.T.A.T.C.A.T.Q.R.L.A.N.F.L.V.H.S.S.N.N.[N#Cc1ccc(C[C@H](N[*:1])C(=O)[*:2])cc1].G.A.I.L.S.S.T.N.V.G.S.N.T.Y.[am]}$PEPTIDE1,PEPTIDE1,2:R3-7:R3$$$V2.0; N-terminus assumed
SMILES: CC[C@H](C)[C@H](NC(=O)[C@H](C)NC(=O)CNC(=O)[C@H](Cc1ccc(C#N)cc1)NC(=O)[C@H](CC(N)=O)NC(=O)[C@H](CC(N)=O)NC(=O)[C@H](CO)NC(=O)[C@H](CO)NC(=O)[C@H](Cc1c[nH]cn1)NC(=O)[C@@H](NC(=O)[C@H](CC(C)C)NC(=O)[C@H](Cc1ccccc1)NC(=O)[C@H](CC(N)=O)NC(=O)[C@H](C)NC(=O)[C@H](CC(C)C)NC(=O)[C@H](CCCNC(=N)N)NC(=O)[C@H](CCC(N)=O)NC(=O)[C@@H](NC(=O)[C@H](C)NC(=O)[C@@H]1CSSC[C@H](NC(=O)[C@@H](N)CCCCN)C(=O)N[C@@H](CC(N)=O)C(=O)N[C@@H]([C@@H](C)O)C(=O)N[C@@H](C)C(=O)N[C@@H]([C@@H](C)O)C(=O)N1)[C@@H](C)O)C(C)C)C(=O)N[C@@H](CC(C)C)C(=O)N[C@@H](CO)C(=O)N[C@@H](CO)C(=O)N[C@H](C(=O)N[C@@H](CC(N)=O)C(=O)N[C@H](C(=O)NCC(=O)N[C@@H](CO)C(=O)N[C@@H](CC(N)=O)C(=O)N[C@H](C(=O)N[C@@H](Cc1ccc(O)cc1)C(N)=O)[C@@H](C)O)C(C)C)[C@@H](C)O
- midpoint (t50) of amyloid formation, p-cyanophenylalanine fluorescence [5]: 982 s
- midpoint (t50) of amyloid formation, thioflavin-T fluorescence [5]: 972 s
